Reference: the supplement of paper PMC9170038

tested on: K4 kissing-loop RNA reporter; test: apparent KD of K4 kissing-loop reporter; higher = weaker reporter binding; conditions: Eterna round: R107; input ligand: FMN 200 uM
Description: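 RNA-MaP round R107: designed RNA switches with theophylline, tryptophan, arginine or FMN aptamers are transcribed on-chip within common flanks. They are titrated with a labelled K4 kissing-loop RNA reporter in RNA-MaP buffer (100 mM Tris pH 7.5, 80 mM KCl, 4 mM MgCl2), without ligand or with the indicated ligand. Median apparent KD per design.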
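Note: bound reporter read as fluorescence of individual clusters on recovered sequencing chips by microscopy, with normalized cluster intensities fitted with a binding model.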

Sequence	apparent KD of K4 kissing-loop reporter
UGAUUGCCAGUGAUGUUGGCAUAUACUGAAGGAGCGCGUGAAAACGCAGGUAGGUCGCAGUUCCUUGCCAAUUGAUCGAAAGAUC [KL-XArg-A1]	0.13 µM
AAGAGGUAGGCGGCCGCCACUAGUUGUGAACACAUACGAGCCAGUGAUGUUGGUAUGGUGGGCGGUAGGACCGGGCCUACCUGAA [Exclusion - Tryptophan B (Freestyle 18)]	0.427 µM
GUGCGCGCGGCGGCCGCCACUCGCAUGAGAGUGAUGUUCUUGCCCGGGCCGCAAGGCCCGGGUGUGAGGACCGGGCCGGGCUGCG [#2 Same State - Tryptophan B Attempt #26 (HarryS)]	0.115 µM
CCGACUGCAGGAAGGAGCGGCGGUUGGAGUGAUGUUCCGGGUAGUGAUGUUACCAAGAUCCGCCAGGUAGGUCGCCUGUUGCUCG [Same State Arginine B GF11]	0.134 µM
AAUGUACAAGUGAUGUUUGUACUUUCCGAAGGAGCGUCUAAUAAGACAGGUAGGUCGCGGAUUAUCAUAAUUAUCAGGUUUUCAA [JR_SSArginiA_Sub015]	0.0988 µM
UGACUGGACUGAAGGAGCGUUGAAGGAGCGUAGUGAGUGAUGUUCACUACAGGUAGGUCGCAGCAGGUAGGUCGCAGUCUAGUCU [ArgBS 25 #DoubleAptamer #SwitchBubble]	0.149 µM
UGAUACCAGACGGCCGCCACUUCCGUAAGUCAAAGACUUGCCAAGGGAAUCGUCCAGUGAUGUUGGAGGACCGGGUCUGGUAUCU [FiskerMod 5 - Jieux - Exclusion - Tryptophan B]	0.677 µM
AAUAUAUAGUGAAGGAGCGCGAUAAGCAGUGAUGUUGCUUUGUUAUGAUUGUCUAUUUUUACGCAGGUAGGUCGCACUAUAUAUA [JR_ExcArginiB_Sub020]	0.165 µM
UAGAGCAUCGCAGGAUAUCCUGCUUAACGUUGGAUUCCAGUGAUGUUGGAAAGCCGGCCUAGGGUAGGAGAAGGGCGGAUUUGAA [Edvean]	0.171 µM
AGGAGCUGUCGACAAAAGUCGACAUAAACCAAGGAUAUGACGAAAGUCAGAAGGUGGUCAUAAGACCAGUGAUGUUGGUAGCUCC [FmnA 10 #SwitchBubble #K4Late]	0.952 µM
CAUGGGCCAGUGAUGUUGGCGCGCACGGGACGAGGACCGGUACGGCCGCCACUCGCUUUUGCUCUUAUCGGGAUAAGAAAACCGA [Enveerorle]	0.453 µM
UUUUUUAAUGGAAGGAGCGCGUGGGCGCAGUGAUGUUGCGCCCGACAUCACUUCAACUUAACGCAGGUAGGUCGCCAUUAUUUUU [Arginine B (Excl) V6]	0.136 µM
AGCUCAGAGUGACUCGAUAAGAGUCACAAACGAGGACCGGUACGGCCGCCACUCGAAAUAACGAGAGUGAUGUUCUCGCUGAGCA [#SwitchBubble 1 #StaticStem #K4Late]	1.16 µM
UAUCGAGUGAUGUUCGAUGUAGUUCAUUCAGAGGAUAUAGGAUGGGCUAGAAGGCUGAAAAGUGCUUCGAGUGAUGUUCGAAGAU [Exclusion FMN A GF 6]	0.0646 µM
AUAGGAGUGAUGUUCCUUAGUUUCUCCGAUACCAGUAUGGAAACAUACCCUUGGCAGCGGGAGACCGCUGAUUAGGAAACUAGUC [Theophylline A K4 8]	0.255 µM
GCUAUGGUAGGAAGGAGCGCUUAUUCAUUAAUAAGAGUGAUGUUCGAUAAUGAAUAUUUAUAGCAGGUAGGUCGCCUACUAUAGC [Arginine B K4 2]	0.3 µM
GGUAGCAUGGCGGCCGCCACUCGGACGACAUAGCACAUGUCGACCAGUGAUGUUGGUUCAAACACGAGGACCGGGCCAUGCUACC	0.724 µM
AGGGAUGUUAAAGGAUAUAGAAAGUGAUGUUAGAAAGUGAGUGAUGUUGAUGUUAGUGAUGUUAUGUUAGAAGGUUAACAAAACG [a]	0.256 µM
ACACUUUACGUAGGAUAUGCGACGAGUGAUGUUCGUCAGGCGGCUCUAGAUUAAACAAGCCGCCUAGCAGAAGGACGGGCAGUGU [Teaanso]	0.154 µM
GCUAAGGAGUGAUGUUCCAAGUGAUGUUAACGAGGACCGGUACGGCCGCCACUCGAUACGGCCGGACCGUAAGAUAAACUACAGC [Same State - Tryptophan A (Freestyle 6)]	0.206 µM
AGACGCCAGUCGGCCGCCACUCACAGCAGUGAUGUUGCUGAGAAUCUAGAAGAGUGAUGUUCUUAGAGGACCGGGACUCCAGUCG [Same State Tryptophan B GF 7]	0.354 µM

Sequence	apparent KD of K4 kissing-loop reporter
GUUACUUCAGAAGGAUAUUAGUAAACAACACGGUAGUGAUGUUACCGUUAUCAAGCCCGGCUUCACUAAGAAGGUCUCCACCGCG [theeternabot_sameState_KL_FMN_B_23]	0.052 µM
GUUUGGCGGGCGGCCGCCACUCGGACGAGUCGCAGUGAUGUUGUGGUUUGCCAGUCGUCUUCAUCGAGGACCGGGUUUGUCGGGC [Exclusion Tryptophan B GF 19]	0.495 µM
CGAAGAAAGGUAUGUGGGAUCUGCGCGUAACGAGGACCGGUACGGCCGCCACUCGACGUCGCAUACGGCCCAGUGAUGUUGGGUG [theeternabot_sameState_KL_Trp_A_14]	0.074 µM
AAAUAAAACUAUGAUACCAGUCAUCACAGAGUGAUGUUUUGUGGCAUUUUAAACUUGGCAGACCCUUGGCAGCAUGAUAUAGGAG [theeternabot_sameState_KL_Theo_B_8]	0.486 µM
UUUAUAUAGUCGGCCGCCACUGAUUUUUAUAUAUGUUUAUGUUUAUACGAGUGAUGUUCGUUAUUCAGGACCGGGACUUUUGUUA [JR_SSTryptoB_Sub016]	0.108 µM
UGAUACCAGGCGGCCGCCACUCCCGCAGGUCAAAGACCUGCGAAGCUGGUUCUUCAGUGAUGUUGGAGGACCGGGCCUGGUAUCU [FiskerMod 25 - Jieux - Exclusion - Tryptophan B]	0.253 µM
GGAUUGCGUUCGGCCGCCACUAGACUACAUUCCACGCCCGACCCGUUUUUAAGUGAUGUUUAAACUAGGACCGGGAACCGAUUUC [theeternabot_exclusion_KL_Trp_B_33]	0.435 µM
AAUAAGGUCGCCGAUACCAGCGCAGGCAGAGCAAAGCUCUGCCAAGUAGUGAUGUUACUGCGCCCUUGGCAGCGGUGGCACGACC [Omei KL Theo B SS C v3]	0.196 µM
UUGUGCAGCAAUCGAGUGAUGUUCGACGAUACCAGCCUCGAUAGAGGCCCUUGGCAGCGUAUCAUCACAUGCCAAGAGCUGCACU [#SwitchBubble 5]	0.53 µM
AUGGUAUUGCGAGGAUAUCCUUCAAAUGUGACACUAACGGCAGUGAUGUUGCCGGCGUCUUUUUGAGGAGAAGGCGCGGUGUUAU [Exclusion FMN B GF 24]	0.114 µM
CCGAAGAACCAGUGAUGUUGGUUGACUAGACAGGAUAUGAGCAACAUCAGAAGGGUCUGGCUUCGGGAGAGAGUCGCGCUGACCU [Anditebier]	0.208 µM
GCGAUCUGCAUCGAUACCAGCCCAGUGAUGUUGGGCUGCUCUCCAUGGGUGCCAGACACGGGCCCUUGGCAGCGAGGUAGAGCCC [Maonzaa]	0.129 µM
GAGCGGUGGAGGUUACCGCUAUUCUGAGAAGGAGCGCAGAUGACUGCAGGUAGGUCGCUUAGAGCUUGCAGUGAUGUUGCAAGUU [Edrirama]	0.197 µM
CGAGUGAUGUUCGAAGAGUUGUUGAGCGAUACCAGCCAGGAAACUGGCCCUUGGCAGCGUAAUAAAUAAAUAAAUAAAUGAUCAC [whbob_Ex_Theo_A_th61]	0.364 µM
GACUCAUGUAGAAGGAGCGUCAGAAGCUACAGACAUGAGUGAUGUUCAUGUUAGUUGAUCUGACAGGUAGGUCGCUACAGCAGGA [KL-SSArg B14 #analogue]	0.145 µM
UUACGCGGCAUAGAUACCAGCAAUGCAGGAUAGGUCAAGAGUGAUGUUCUGAUACUUGGGUGCCCUUGGCAGCUAGACGAUAACA [theeternabot_sameState_KL_Theo_B_46]	0.479 µM
AAUAAACAGUCGGCCGCCACUUCAAUAGACUUAUUAUUGAAUGGUGUAGUUCUUCAGUGAUGUUGAAGGACCGGGACUUUCGCGC [Isesator]	0.157 µM
CAGCAGAGUGAUGUUCUGCUUACUGCGGAUACCAGCUUUGCCAGAGGCCCUUGGCAGCCGCACGGCUCAGUGAUGUUGGGUCACG [Same State Theophylline A GF 13]	0.296 µM
UGAUAGGACAGAAGGAGCGGAAGCUAGUCAAAGACUAGCAAACGUUAAACAGGAGUGAUGUUCCAGGUAGGUCGCUGUCCUAUCU [ArgBX 23 #SwitchBubble #StaticStem]	0.124 µM
UAUUGUACAGGGAAAUUGAUAAUAGACUUACGAGGACCGGUACGGCCGCCACUCGAUAGUCGAGUGAUGUUCGAAUGCUAUUGAU [Attempt 1]	0.218 µM
UGAUACCAGACGGCCGCCACUUCUGCAAGUCAAAGACUUGCCAAGGGAAUCGUCCAGUGAUGUUGGAGGACCGGGUCUGGUAUCU [FiskerMod 3 - Jieux - Exclusion - Tryptophan B]	0.88 µM

same assay, conditions: Eterna round: R107; input ligand: arginine 13.2 mM

Sequence	apparent KD of K4 kissing-loop reporter
UGAUUGCCAGUGAUGUUGGCAUAUACUGAAGGAGCGCGUGAAAACGCAGGUAGGUCGCAGUUCCUUGCCAAUUGAUCGAAAGAUC [KL-XArg-A1]	0.138 µM
AAGAGGUAGGCGGCCGCCACUAGUUGUGAACACAUACGAGCCAGUGAUGUUGGUAUGGUGGGCGGUAGGACCGGGCCUACCUGAA [Exclusion - Tryptophan B (Freestyle 18)]	0.481 µM
GUGCGCGCGGCGGCCGCCACUCGCAUGAGAGUGAUGUUCUUGCCCGGGCCGCAAGGCCCGGGUGUGAGGACCGGGCCGGGCUGCG [#2 Same State - Tryptophan B Attempt #26 (HarryS)]	0.00109 µM
CCGACUGCAGGAAGGAGCGGCGGUUGGAGUGAUGUUCCGGGUAGUGAUGUUACCAAGAUCCGCCAGGUAGGUCGCCUGUUGCUCG [Same State Arginine B GF11]	0.117 µM
AAUGUACAAGUGAUGUUUGUACUUUCCGAAGGAGCGUCUAAUAAGACAGGUAGGUCGCGGAUUAUCAUAAUUAUCAGGUUUUCAA [JR_SSArginiA_Sub015]	0.0888 µM
UGACUGGACUGAAGGAGCGUUGAAGGAGCGUAGUGAGUGAUGUUCACUACAGGUAGGUCGCAGCAGGUAGGUCGCAGUCUAGUCU [ArgBS 25 #DoubleAptamer #SwitchBubble]	0.107 µM
UGAUACCAGACGGCCGCCACUUCCGUAAGUCAAAGACUUGCCAAGGGAAUCGUCCAGUGAUGUUGGAGGACCGGGUCUGGUAUCU [FiskerMod 5 - Jieux - Exclusion - Tryptophan B]	0.491 µM
AAUAUAUAGUGAAGGAGCGCGAUAAGCAGUGAUGUUGCUUUGUUAUGAUUGUCUAUUUUUACGCAGGUAGGUCGCACUAUAUAUA [JR_ExcArginiB_Sub020]	0.104 µM
UAGAGCAUCGCAGGAUAUCCUGCUUAACGUUGGAUUCCAGUGAUGUUGGAAAGCCGGCCUAGGGUAGGAGAAGGGCGGAUUUGAA [Edvean]	0.151 µM
AGGAGCUGUCGACAAAAGUCGACAUAAACCAAGGAUAUGACGAAAGUCAGAAGGUGGUCAUAAGACCAGUGAUGUUGGUAGCUCC [FmnA 10 #SwitchBubble #K4Late]	0.259 µM
